# Experiments:
# [1] = target: human ANG2 protein (623-AN-025/CF, R&D) (human) (UniProt O15123); assay: cell-based or functional assay
# [2] = target: human ANG2 protein (623-AN-025/CF, R&D) (human) (UniProt O15123); assay: flow cytometry, inhibition of human ANG2 (10 µg/mL) binding to HUVEC cells
# Sequence of human ANG2 protein (623-AN-025/CF, R&D) (human) (O15123 19-496 limits assumed): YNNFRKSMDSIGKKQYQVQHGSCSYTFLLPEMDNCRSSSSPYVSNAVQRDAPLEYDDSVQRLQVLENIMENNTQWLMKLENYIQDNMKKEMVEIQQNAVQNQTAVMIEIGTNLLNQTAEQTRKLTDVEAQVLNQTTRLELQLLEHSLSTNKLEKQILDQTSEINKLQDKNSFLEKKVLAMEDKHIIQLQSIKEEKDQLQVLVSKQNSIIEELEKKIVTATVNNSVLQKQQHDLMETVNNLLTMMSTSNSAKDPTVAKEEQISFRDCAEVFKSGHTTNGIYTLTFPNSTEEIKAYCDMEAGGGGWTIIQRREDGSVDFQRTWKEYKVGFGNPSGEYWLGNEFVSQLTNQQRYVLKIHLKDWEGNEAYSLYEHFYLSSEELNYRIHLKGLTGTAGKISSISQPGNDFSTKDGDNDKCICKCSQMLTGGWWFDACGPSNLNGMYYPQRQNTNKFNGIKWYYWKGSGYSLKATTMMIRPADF
substance,measurement,setting,value
"RG7716 (ATAD00534, Atagenix) (bispecific antibody)",IC50 of inhibition of AKT phosphorylation of human ANG2-dependent HUVEC cells,[1],27.3 nM
same,IC50,[2],53.9 nM

# From US20240425575A1
